From patent US20100297093A1
Read-outs that look alike come from different tables or passages of the source.

Columns and labels:
[1] = target: MART-1:27-35 peptide presented by HLA-A2 on target cells (UniProt Q16655); experiment: cell-based or functional assay
[2] = target: MART-1 peptide on HLA-A*02:01 (human); experiment: peptide titration, transfected CD4+ T cells, peptide-pulsed target cells; upper bound 100 fold; minimal effect in CD8+ T cells; full-length, on cells
[3] = target: MART-1:27-35 peptide presented by HLA-A2 on target cells (UniProt Q16655); experiment: cell-based or functional assay; remark: listed apart in the source

Row | IFN-γ; CD4+ T; 624.38 [1] [pg/mL] | IFN-γ; CD4+ T; 1300 [1] [pg/mL] | IFN-γ; CD8+ T; 624.38 [1] [pg/mL] | IFN-γ; CD8+ T; 1300 [1] [pg/mL] | peptide titration; CD4+ T; fold lower MART-1:27-35 concentration recognized vs WT DMF4 [1] [fold] | fold lower peptide concentration recognised than with the WT TCR [2] [fold] | IFN-γ; CD4+ T; 624.38 [3] [pg/mL] | IFN-γ; CD4+ T; 1300 [3] [pg/mL] | IFN-γ; CD8+ T; 624.38 [3] [pg/mL] | IFN-γ; CD8+ T; 1300 [3] [pg/mL] | Molecule
1 | 15800 | 11200 | 32800 | 78000 | 10 to 100 |  |  |  |  |  | DMF4 TCR, WT α + β51:A (G51A)
2 | 3220 | 3480 | 47700 | 32800 |  |  |  |  |  |  | DMF4 anti-MART-1 TCR, wild type α and β chains
3 |  |  |  |  |  | > 10 |  |  |  |  | DMF4 β51:A
4 |  |  |  |  |  |  | 20400 | 11100 | 36400 | 91800 | DMF4 TCR, αLA (T93L/G94A) + WT β (TCR, part only; not given: wild type beta chain, part only) TCR alpha: GQQLNQSPQSMFIQEGEDVSMNCTSSSIFNTWLWYKQDPGEGPVLLIALYKAGELTSNGRLTAQFGITRKDSFLNISASIPSDVGIYFCAGGLANQFYFGTGTSLTVIPNIQNPDPAVYQLRDSKSSDKSVCLFTDFDSQTNVSQSKDSDVYITDKTVLDMRSMDFKSNSAVAWSNKSDFACANAFNNSIIPEDTFFPSPESSCDVKLVEKSFETDTNLNFQNLSVIGFRILLLKVAGFNLLMTLRLWSS
